The subject of the assay is human leukemia HL 60(s) xenografts. Kind of assay: Human leukemia xenograft model. As to conditions: HL 60(s) xenograft, 21 days; for Tumor weight (X ± SD): n = 10. In kind it is in vivo, athymic nude Balb/c mice.

B1: Novaferon: novel recombinant non-naturally occurring human interferon-like protein, 166 amino acids (SEQ ID No: 2), from Type I interferon shuffling library, expressed in E. coli (protein)
chain: CNLSQTHSLGSKRTLMLLAQMGKISLFSCLKDRHDFEFPQEEFDGNQFQKAQAISVLHELIQQTFNLFSTKESSAAWDEGLLDKFRTELYRQLNDLEACMMQEVGVEETPLMNADSILAVKKYFQRITLYLMEKKYSPCAWEVVRVEIMRSLSFSTNLQKRLRGKD
On to B1, for which the Inhibition rate is listed as 43.8% (1.25 μg/kg daily s.c.), 55.2% (12.5 μg/kg daily s.c.) and 80.4% (125 μg/kg daily s.c.). Besides, the “Tumor weight (X ± SD)” value was 2.091 ± 0.653 g (1.25 μg/kg daily s.c.), 1.668 ± 0.665 g (12.5 μg/kg daily s.c.) and 0.729 ± 0.332***@ g (125 μg/kg daily s.c.).
